Experimental data: patent US20240294650A1 (Alector, published 2024)
Changes are numbered by the printed parent chain.

T1: human MerTK (human, UniProt Q12866 21-999)
T1 sequence: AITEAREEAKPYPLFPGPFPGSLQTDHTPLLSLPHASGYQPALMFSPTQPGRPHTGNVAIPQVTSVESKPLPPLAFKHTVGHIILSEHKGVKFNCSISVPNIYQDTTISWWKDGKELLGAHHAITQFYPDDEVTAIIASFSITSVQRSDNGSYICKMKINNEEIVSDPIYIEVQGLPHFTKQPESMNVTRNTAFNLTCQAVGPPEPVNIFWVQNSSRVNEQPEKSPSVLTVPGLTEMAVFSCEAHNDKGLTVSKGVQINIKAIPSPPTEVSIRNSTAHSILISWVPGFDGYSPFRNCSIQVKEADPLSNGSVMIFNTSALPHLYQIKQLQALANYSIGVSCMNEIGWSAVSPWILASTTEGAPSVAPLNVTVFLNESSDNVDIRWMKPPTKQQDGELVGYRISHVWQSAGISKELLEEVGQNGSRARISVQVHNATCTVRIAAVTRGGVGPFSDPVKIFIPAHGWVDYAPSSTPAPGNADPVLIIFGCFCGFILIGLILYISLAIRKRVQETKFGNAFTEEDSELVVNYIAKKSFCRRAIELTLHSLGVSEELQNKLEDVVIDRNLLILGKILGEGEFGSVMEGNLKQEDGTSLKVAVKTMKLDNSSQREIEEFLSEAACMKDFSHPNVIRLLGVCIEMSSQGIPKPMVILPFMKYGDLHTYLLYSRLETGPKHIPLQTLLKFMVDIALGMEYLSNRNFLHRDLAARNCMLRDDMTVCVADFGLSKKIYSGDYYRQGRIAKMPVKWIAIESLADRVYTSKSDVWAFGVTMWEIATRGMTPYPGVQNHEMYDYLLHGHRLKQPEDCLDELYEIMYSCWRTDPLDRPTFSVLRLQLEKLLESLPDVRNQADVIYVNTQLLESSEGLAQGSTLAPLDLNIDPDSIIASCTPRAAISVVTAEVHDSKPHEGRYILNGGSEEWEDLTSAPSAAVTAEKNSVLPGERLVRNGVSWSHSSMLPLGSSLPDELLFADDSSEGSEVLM

T2: recombinant human MerTK extracellular domain (human, UniProt Q12866 21-505)
T2 construct: also called human MerTK ECD; not shown: polyHis or TEVS/Thrombin/murine IgG2a-Fc tag
T2 sequence: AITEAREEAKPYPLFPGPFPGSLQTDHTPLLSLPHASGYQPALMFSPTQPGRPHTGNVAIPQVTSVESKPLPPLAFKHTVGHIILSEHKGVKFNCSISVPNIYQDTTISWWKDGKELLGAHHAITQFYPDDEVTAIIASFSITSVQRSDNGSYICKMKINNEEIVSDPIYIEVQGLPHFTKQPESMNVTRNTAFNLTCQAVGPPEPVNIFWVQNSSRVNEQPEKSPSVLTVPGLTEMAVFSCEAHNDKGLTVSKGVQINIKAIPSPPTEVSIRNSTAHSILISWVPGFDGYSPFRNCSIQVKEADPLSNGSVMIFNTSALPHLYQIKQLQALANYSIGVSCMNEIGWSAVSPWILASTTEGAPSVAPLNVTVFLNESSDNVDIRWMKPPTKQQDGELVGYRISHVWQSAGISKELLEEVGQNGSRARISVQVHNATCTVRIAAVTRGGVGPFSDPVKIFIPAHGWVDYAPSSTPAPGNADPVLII

B1: MTK-215 (antibody, human IgG1, V domains shown)
VH: EVQLVESGGGLVKPGGSLKLSCAASGFIFSDYGMHWVRQAPEKGLEWVAYISSGSSTIYYGDTVKGRFTISRDNAKNTLFLQMTSLRSEDTAMYYCAKGGRYGAMDYWGHGTSVTVSS
VL: DIVLTQSPATLSVTPGDSVSLSCRASQSISNNLHWYQQKSHESPRLLIKNPSQSISGIPSRFGARGSGTDFTLIINSVETEDLGVYFCQQSNSWPFTFGSGTKLEIK
B2: MTK-207 (antibody, human IgG1, V domains shown)
VH: QVQLKESGPGLVAPSQSLSITCTVSGISLTSYGVSWVRQPPGKGLEWLGIIWGDGSTNYHSALISRLSISKDNSKSQVFLKLNSLQTDDTATYYCAKGRYGNYEDWYFDVWGTGTTVTVSS
VL: DIQMTQSPASLSASVGETVTITCRASGNIHNYLAWYQQKQGKSPQLLVYNAKTLAAGVPSRFSGSGSGTQYSLKINSLQPEDFGSYYCQHFWSIPLTFGAGTKLELK
B3: MTK-208 (antibody, human IgG1, V domains shown)
VH: QVQLQQPGAELVVPGASVRLSCKASGYTFINYWMHWVKQRPGQGLEWIGEIDPSDSYANYNQKFKDKSTLSLDKSSSTAYMQLSSLTSEDSAVYYCARCDYYGRLDYWGQGTTLTVSS
VL: QVVLTQSPAIMSASPGEKVTITCSASSSVSYMLWFQQKPGTSPKLWIYSTSNLASGVPARFSGSGSGTSYSLTISRLEAEDAATYYCQQRSSYPPITFGAGTKLELK
B4: MTK-225 (antibody, human IgG1, V domains shown)
VH: EVQLQQSGPELVKPGASVKIFCKASGYTFTAYNMDWVKQSHGKSLEWIGDINPNNGGTIYNQKFKGKATLTVDKSSSTAYMELRSLTSEDTAVYYCARRRRYGNTYYWYFDVWGTGTTVTVSS
VL: DIQMTQSPASLSVSVGETVTITCRASENIYSSLAWYQQKQGKSPQLLVYAATNLADGVPSRFSGSGSGTQFYLKINGLQSEDFGSYYCQHFWGTSYTFGGGTKLEIK
B5: MTK-231 (antibody, human IgG1, V domains shown)
VH: DVQLQESGPGLVKPSQSLSLTCSVTGYSITSGYYWNWIRQFPGNKLEWMGYISYDGTYNYHPSLKNRISITRDTSKNQFFLTLNSVTTEDTATFYCTRGGGYWGQGTSVTVSS
VL: DVVMTQTPLSLPVSLGDQASISCRSSQSLVHSDGNTYLHWYLQKPGQSPKLLIYKVSNRFSGVPDRFSGSGSGTDFTLKISRLEAEDLGIYFCSQTTHIPLTFGSGTKLEIK
B6: MTK-216 (antibody, human IgG1, V domains shown)
VH: EVQLVESGGGLVKPGGSLKLSCAASGFTFSDYGMHWVRQAPEKGLEWVAFISSGSTTIYYADTVKGRFTISRDNAKNTLILQMTSLRSEDTAIYYCTRGGFHLDYWGQGTTLTVSS
VL: SIMMTQSPSSLAVSAGEKVTMGCKSSQSVLYSANQQNYLAWYQQKPGQSLKLLIYWASTRESGVPDRFTGSGSGTDFTLTISSVQAEDLAVYYCHQYFSSWTFGGGTKLEIK
B7: MTK-202 (antibody, human IgG1, V domains shown)
VH: EVQLVESGGGLVKPGGSLKLSCAASGFTFSDFGMHWVRQVPEKGLEWVAFISGGSNTIYYTDTVKGRFTISRDNAKNTLFLQMTSLRSEDTAMYYCVRNGNSFAYWGQGTLVTVSA
VL: B6 VL with S1N, G22N, A33S, Q36K, L50P, S83N, V84I, V91I, S99F
B8: MTK-204 (antibody, human IgG1, V domains shown)
VH: B6 VH with F50Y, S55T, T56S, A61E, I80F, I93M, T97A, F101L, H102L, L103F
VL: B6 VL with S1N, G22S, A33S, Q36K, L50P, Y55Q, G74E, S82R
B9: MTK-206 (antibody, human IgG1, V domains shown)
VH: QVQLQQSGAELARPGASVKMSCKASGYTFTSYTMHWVKQRPGQGLEWIGYINPSSGYIKNSQKFKDKATLTADKSSSTAYMQLSSLTSEDSAVYYCARTVYGYYGSSPDYWGQGTTLTVSS
VL: DIQMTQSPSSLSASLGERVSLTCRASQDIGSNLNWLQQEPDGTIKRLIYATSSLESGVPKRFSGSRSGSDYSLTISSLESEDFVDYYCLQYDSSPWTFGGGTKLEIK
B10: MTK-212 (antibody, human IgG1, V domains shown)
VH: QVQLQQSGPELVKPGASVKISCKASGYAFSSSWVNWVKQRPGKGLEWIGRIYPGDGDSNYNGNFKGKATLTADKSSNTAYLQLSSLTSEDSAVYFCARKSHFIYYTLDYWGQGTPVTVSS
VL: DIVMTQSHKFKSTSVGDRVSIACKASQDVGTSVAWYQQKPGKSPKLLIYWASSRHTGVPDRFTGSGSGTDFTLTISNVQSEDLTDYFCQQYSTYPYTFGGGTKLEIK
B11: MTK-221 (antibody, human IgG1, V domains shown)
VH: QVTLKESGPGMLQSSQTLSLTCSFSGFSLSTSGMGVSWIRQPSGKGLEWLAHIYWDDDKRYNTSLQSRLTISKDTSRNQVFLKITSVDTADTATYFCGRLGAYSAFPYYFDYWGQGTTLTVSS
VL: DIQMTQSPSSLSASLGGKVTITCKASQDIHKHIAWYQHKPGKGPRLLIHYTSTLQPGIPSRFSGSGSGRDYSFSISNLEPEDLATYYCLQYDNLWTFGGGTKLEIK

molecular target: T1, human MerTK; test: cell-based or functional assay

| EC50 (nM), pAKT in SK-MEL-5 cells [nM] | Fold increase in PAKT over IgG control [fold] | Binder |
| --- | --- | --- |
| 208 | 2.6 | B1 |
| – | 1 | B2 |
| – | 2.6 | B3 |
| – | 4.5 | B4 |
| 0.65 | 3 | B5 |
| – | 3.2 | B6 |
| 1.01 | 3 | B7 |
| – | 3 | B8 |
| – | 3.1 | B9 |
| 96.9 | 3.3 | B10 |
| – | 4.4 | B11 |

molecular target: T2, recombinant human MerTK extracellular …; test: SPR Carterra LSA, Ab immobilised
Description: Binding kinetics of anti-MerTK IgG1 antibodies of the present disclosure to human, cyno, and murine MerTK were evaluated using a Carterra LSA instrument (Carterra, Salt Lake City, UT). […] A HC200M sensor chip (Carterra) was activated using the single channel flow cell with a 7-minute injection of a 1:1:1 mixture of 100 mM MES pH 5.5, 100 mM sulfo-NHS, 400 mM EDC (all reconstituted in MES pH 5.5; 100 μl of each mixed in vial immediately before running assay). After switching to the multi-channel array flow cell, the antibodies were injected over the activated chip in three 96-spot arrays for 10 minutes each. The remaining unconjugated active groups on the chip were then blocked by injecting 1M Ethanolamine pH 8.5 (Carterra) for 7 minutes using the single channel flow cell. The resulting sensor chip contained three spots for each antibody, at three different densities. Two independent experiments were performed as follows, resulting in an N of between one and six determinations for each antibody. Spots that yielded less than 25 RU of analyte binding were excluded from further analysis.
After priming with running buffer (HBS-TE, Carterra) with 0.5 mg/ml BSA (Sigma), the immobilized anti-MerTK antibodies were tested for their ability to bind to several forms of recombinant MerTK extracellular domain, including human, cynomolgus, and mouse orthologs as described above. Estimates of affinity were generated by injecting each analyte over the entire antibody array using the single channel flow cell. MerTK analytes were diluted with running buffer, in a series of six, three-fold serial dilutions starting from 1 μM for human and cynomolgus MerTK, and 600 nM for mouse MerTK. Analytes were injected for 5 minutes, and dissociation was followed for 10 minutes. After each analyte injection, antibodies were regenerated with either Protein A/G Elution Buffer (Thermo) with 1M NaCl (Teknova), or with 10 mM Glycine pH 2.5. Three buffer blanks were run between each series (one species per series). Data were processed and analyzed using NextGenKIT high-throughput kinetics analysis software (Carterra).

| Kd [nM] | Binder |
| --- | --- |
| 370 | B1 |
| 52 | B2 |
| 19 | B3 |
| 52 | B4 |
| 26 | B5 |
| 41 | B6 |
| 33 | B7 |
| 240 | B8 |
| 150 | B9 |
| 82 | B10 |
| 29 | B11 |
